Results on one substance are retold here after paper PMC3994269.

Where “and” joins values, the source holds several entries; their conditions need not be identical. Equal values may be shown once.

Test [1] deals with Plasmodium falciparum heat shock factor binding protein (PfHSBP), endogenous (P. falciparum (endogenous in 3D7 parasites)) (UniProt Q8IIF8). The test can be described thus: SEC; P. falciparum lysate on Superdex 200 10/300 GL in PBS; fractions immunoblotted for PfHSBP. For orientation: SEC sorts molecules by how far they enter the pores of the column.
Test [2] has the same target. The test can be described thus: SDS-PAGE and immunoblot (SDS-resistant oligomers); P. falciparum lysate resolved on SDS-PAGE and probed with anti-PfHSBP antiserum; pre-immune serum as control. Background: In western blotting, separated proteins are transferred to a membrane and probed.
For test [3] the target is unchanged. The test can be described thus: immunoprecipitation, SDS-PAGE and phosphorimaging; lysate of [35S]-labelled P. falciparum (1% Triton X-100); anti-PfHSBP antiserum 1:25 at 4°C for 12 hours, Protein G beads; Protein G and pre-immune serum controls.

As a reminder, the stoichiometry N is the number of molecules, sites or subunits per partner or assembly.

Take “Plasmodium falciparum heat shock factor binding protein (PfHSBP), endogenous (from UniProt Q8IIF8 1-113) (natural protein)”: the stoichiometry N is 6 in test [1]; 3 and 6 in test [2]; 6 in test [3].
